Each block holds one molecule with its values, some of them ahead of it.
Target: T1, PG I蛋白(fitzgerald，30R-AP038) (UniProt P0DJD8 16-388)
T1 construct: Bought antigen; Pepsinogen I is a group of isozymogens (human genes PGA3, PGA4, PGA5); also called 胃蛋白酶原I; HPG I
Test: BLI, antibody captured on AMC sensor, PG I protein in a dilution series in PBST

T1 sequence (P0DJD8 16-388): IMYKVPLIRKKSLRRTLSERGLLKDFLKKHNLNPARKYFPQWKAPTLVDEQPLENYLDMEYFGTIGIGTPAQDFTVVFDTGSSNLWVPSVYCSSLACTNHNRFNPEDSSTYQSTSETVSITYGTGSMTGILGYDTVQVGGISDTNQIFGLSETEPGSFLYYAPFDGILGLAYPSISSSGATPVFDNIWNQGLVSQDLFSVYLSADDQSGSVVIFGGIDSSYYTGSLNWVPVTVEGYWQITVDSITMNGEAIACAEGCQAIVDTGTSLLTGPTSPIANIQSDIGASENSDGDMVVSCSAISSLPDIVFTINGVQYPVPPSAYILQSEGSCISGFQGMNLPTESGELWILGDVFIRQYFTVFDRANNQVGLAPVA

Kd: 0.271 nM
koff: 0.000529 s⁻¹
kon: 1.95e+06 M⁻¹ s⁻¹
Molecule: 对照抗体 (antibody)

Kd: 0.0275 nM
koff: 0.000536 s⁻¹
kon: 1.95e+07 M⁻¹ s⁻¹
B1: Anti-HPG I 13A5单克隆抗体 (antibody, V domains shown)
VH: QVQLQQSGPELVRPGVSVKISCKGSGYTFTDHPMHWVKQSHAKSLEWIGVISTFSGHRNYNQKFKGKATMTVDKSSTTAYMELDRLTSEDSAIYYCARGDKSIYYGSYLSWGQGTLITVSA
VL: QIVLTQSPAIMSASPGEKVTMTCSASSSVSYMYWYQQKSGTSPKRWIYDTSKLTSGVPARFSGSGSGTSYSLTISSMETEDAATYFCQQWSSSPLTFGAGTKLELK
